Measurements reported in patent publication EP2857035B1 (Survac ApS, dated 2017).

Each binder was assayed against T1, HLA-A2 (human) (assay: assembly assay, T2 cell lysate).
T1 construct: MHC class I molecule without added peptide, from cell lysate; stably folded molecules immunoprecipitated with a conformation-dependent antibody; also called HLA-A*0201; HLA A*0201

Row | Binder | binding result
1 | ETAKKVRRAI (also called Survivin126-135) [Sur10] | no binding
2 | RAIEQLAAM (also called Survivin133-141) [Sur2] | no binding
3 | SVKKQFEEL (also called Survivin88-96) [Sur5] | no binding
4 | TAKKVRRAI (also called Survivin127-135) [Sur7] | no binding

These binders were tested against T1, HLA-A2 (assay: assembly assay, TAP-deficient cell lysate).

Row | Binder | binding result
5 | SVKKQFEELTL [Sur88-98] | no binding
6 | KLDRERAKNKI [Sur103-113] | no binding
7 | LAQCFFCFKEL [Sur54-64] | no binding
8 | PTLPPAWQPFL [Sur4-14] | no binding

Each binder was assayed against T2, HLA-A1 (human) (assay: assembly assay, TAP-deficient cell lysate).
T2 construct: MHC class I molecule; also called HLA-A*0101

Row | Binder | binding result
9 | QFEELTLGEY [sur92Y9] | no binding (tested: peptide tested at 40, 4, 0.4, 0.04 µM)
10 | TPERMAEAGF (also called Survivin34-43) [Sur34-43] | no binding (tested: peptide tested at 40, 4, 0.4, 0.04 µM)
11 | TPERMAEAGY [sur34Y9] | no binding (tested: peptide tested at 40, 4, 0.4, 0.04 µM)
12 | FEELTLGEY [sur93Y9] | no binding (tested: peptide tested at 40, 4, 0.4, 0.04 µM)
13 | LKDHRISTF [Sur14-22] | no binding (tested: peptide tested at 40, 4, 0.4, 0.04 µM)
14 | LKDHRISTY [sur14Y9] | no binding (tested: peptide tested at 40, 4, 0.4, 0.04 µM)
15 | EPDLAQCFF (also called Survivin51-59) [Sur51-59] | no binding (tested: peptide tested at 40, 4, 0.4, 0.04 µM)
16 | PTENEPDLAQ [Sur47-56] | no binding (tested: peptide tested at 40, 4, 0.4, 0.04 µM)
17 | ENEPDLAQCF [Sur49-58] | no binding (tested: peptide tested at 40, 4, 0.4, 0.04 µM)
18 | ENEPDLAQCY [sur49Y9] | no binding (tested: peptide tested at 40, 4, 0.4, 0.04 µM)
19 | MAEAGFIHC [Sur38-46] | no binding (tested: peptide tested at 40, 4, 0.4, 0.04 µM)

These binders were tested against T3, HLA-A3 (human) (assay: assembly assay, TAP-deficient cell lysate).
T3 construct: MHC class I molecule from cell lysate; immunoprecipitated with mAb W6/32; also called HLA-A*0301

Row | Binder | binding result
20 | PTIRRKNLRK (the text says nothing of its origin) [SurEx3-A3-2] | no binding
21 | FLKLDRERAK [Sur 101-110] | no binding
22 | FLKDHRISTK [Sur13K9] | no binding
23 | CAFLSVKKQF [Sur 84-93] | no binding
24 | RITREEHKK (the text says nothing of its origin) [Sur2b-A3-1] | no binding
25 | DLAQCFFCF [Sur 53-61] | no binding
26 | DLAQCFFCK [Sur53K9] | no binding
27 | RISTFKNWPF [Sur 18-27] | no binding
28 | IAKETNNKKK [Sur 113-122] | no binding
29 | KLDRERAKNK [Sur 103-112] | no binding

The binders below were run against T4, HLA-A11 (human) (assay: assembly assay, TAP-deficient cell lysate).
T4 construct: MHC class I molecule from cell lysate; immunoprecipitated with mAb W6/32; also called HLA-A*1101

Row | Binder | binding result
30 | FLKLDRERAK [Sur 101-110] | no binding (tested: peptide tested at 40, 4, 0.4, 0.04 µM)
31 | ELTLGEFLK [Sur 95-103] | no binding (tested: peptide tested at 40, 4, 0.4, 0.04 µM)
32 | CAFLSVKKQF [Sur 84-93] | no binding (tested: peptide tested at 40, 4, 0.4, 0.04 µM)
33 | DLAQCFFCF [Sur 53-61] | no binding (tested: peptide tested at 40, 4, 0.4, 0.04 µM)
34 | RISTFKNWPF [Sur 18-27] | no binding (tested: peptide tested at 40, 4, 0.4, 0.04 µM)
35 | IAKETNNKKK [Sur 113-122] | no binding (tested: peptide tested at 40, 4, 0.4, 0.04 µM)
36 | KLDRERAKNK [Sur 103-112] | no binding (tested: peptide tested at 40, 4, 0.4, 0.04 µM)

These binders were tested against HLA-B35 (human) (assay: assembly assay, T2-B35 cell lysate, W6/32 IP, IEF gel).

Row | Binder | C50
37 | TPERMAEAGF (also called Survivin34-43) [Sur34-43] | > 100 µM
38 | LPPAWQPFL (also called Survivin6-14) [Sur6-14] | > 100 µM
39 | EPDLAQCFY [Sur51Y9] | 1.5 µM
40 | EPDLAQCFF (also called Survivin51-59) [Sur51-59] | 13 µM
41 | CPTENEPDL (also called Survivin46-54) [Sur46-54] | 20 µM
42 | CPTENEPDY [Sur46Y9] | 4 µM
